According to the supplement of paper PMC10567573:

B1: APBB1IP (parent)
chain: SQVSMWDQRWQDHQPLLPITDVP

Variants of: B1
Assay: protein stability index of a GFP-peptide fusion (GPS, HEK-293T) (PSI 1-6); higher = more stable
Details: c terminus: native
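Also: lentivirally expressed fusions sorted by FACS into six bins by GFP to DsRed ratio, PSI derived from sequencing read proportions per bin multiplied by bin number.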

Protein stability index: each site, then its substitutions
S4: W 2.01; Y 2.42; V 2.49
D21: H 1.75; A 2.56; S 1.6; K 2.44; W 1.63; P 2.07; Q 1.53; Y 1.65; N 1.7; T 2.88; F 1.44; E 1.77; M 1.62; C 5.18; G 1.94
W6: F 2.55; T 4.02; P 3.18; E 4.03; Y 2.09; A 3.27; R 3.29; K 3.24; M 2.65; N 3.52; V 3.01; S 3.08; L 3.09; I 2.56; G 2.95; Q 3.48; C 3.04; H 2.51; D 4.13
L16: F 3.4; P 2.38; G 3.07; E 3.38; S 2.98; D 3.42; R 2.61; I 2.55; T 2.92; Q 2.73; M 2.53; K 3.08; C 2.83; Y 3.06; A 2.95; N 3.54; V 2.54; W 2.23
Q11: F 1.68; V 2.25; L 1.59; S 2.37; M 2.06; N 2.74; P 2.1; G 1.77; H 1.67; A 1.84; D 2.38; E 3.38; K 2.87; T 2.29; I 3.03; R 3.7; C 1.92; W 1.77
M5: A 3.14; V 1.65; S 2.5; N 2.76; C 1.52; D 3.15; G 2.37; L 2.77; I 1.98; Y 2.17; K 2.64; R 3.34; P 3.15; T 2.73; F 1.89
P15: W 1.43; S 3.35; Y 2.27; D 4.41; L 2.06; I 2.03; F 2.2; N 2.77; K 2.82; E 2.77; T 1.93; C 2.18; H 2.07; G 3.45; Q 3.25; V 1.55; M 1.82; A 2.23
H13: C 2.24; A 3.06; Y 2.15; K 2.76; V 2.47; W 1.5; I 2.3; S 2.94; R 2.58; M 1.99; D 3.17; P 2.23; F 1.88; Q 2.43; L 1.95; T 2.94; N 2.85; G 3.03; E 3.47
V22: F 2.72; M 2.53; I 2.19; H 2.75; Y 1.91; T 2.65; S 2.8; D 3.85; Q 2.98; W 2.19; R 2.99; E 3.45; N 2.69; C 2.06; A 2.31; P 2.83; K 3.37; G 2.42; L 2.43
D12: L 2.44; V 3.1; Q 2.06; W 1.24; S 2.1; Y 3.2; I 1.75; R 1.34; E 2.15; N 2.17; F 1.8; A 2.31; M 1.85; C 1.56; H 1.64; P 1.78; K 1.71; T 2.59
W10: M 2.4; V 2.17; C 3.12; P 3.68; K 3.75; Y 2.55; D 3.44; L 2.51; H 3.14; F 2.31; S 3.37; I 2.81; Q 3.29; R 3.03; N 3.39
L17: Y 2.19; P 2.84; H 3.2; A 3.32; G 3.81; D 3.79; S 2.34; I 1.85; M 2.17; T 2.58; Q 2.59; E 3.68; V 2.71; C 2.06; N 3.1; W 2.96; F 2.06; R 2.26; K 3.67
R9: N 2.73; Q 3.39; A 1.84; I 2.34; P 3.64; F 3.11; E 3.54; S 2.4; W 1.93; C 2.26; H 3.7; M 3.13; V 2.38; L 2.61; D 3.69; G 2.89; Y 2.42
Q8: F 1.73; I 1.94; M 1.39; Y 2.21; V 2.33; S 2.28; G 2.27; E 2.6; D 2.35; L 1.86; N 2.68; K 2.68; T 2.09; C 1.37; P 2.13; W 3.03; A 2.03; R 1.78; H 2.16
D7: E 2.85; W 1.49; I 1.04; Y 2; G 1.49; K 1.46; M 1.44; C 2.37; Q 2.44; N 2.44; R 1.77; A 3.25; P 1.96; S 1.61; L 1.72; H 1.68; T 2.27; F 1.23
P23: D 3.6; I 2.48; E 2.9; M 1.19; C 2.85; L 2.06; G 1.91; A 2.56; F 2.21; N 1.81; H 2.58; K 2.03
Q14: E 3.31; N 2.89; W 2.23; Y 2.06; K 2.28; T 2.48; F 2.25; A 2.48; C 3.58; D 2.74; S 2.38; H 2.67; L 2; I 2.09; P 2.74; M 2.15; G 2.54; R 1.86; V 2.23
T20: C 2.34; K 3.24; F 2.58; G 1.77; S 3.27; V 1.65; Y 1.88; M 2.04; A 2.33; L 1.92; R 2.32; I 1.79; H 2.37; N 3.23; P 2.7; Q 2.61; D 2.67
P18: C 1.82; S 2.12; W 1.28; K 2.1; Q 1.71; R 2.29; D 3.42; M 1.71; F 1.36; G 1.76; N 2.56; H 2.38; T 1.31; L 1.41; A 2.91; E 2.55; Y 2.07
I19: K 4.04; C 2.15; D 4.17; Y 2.84; N 3.55; P 3.04; V 2.17; G 3.67; R 3.17; Q 2.87; H 3.78; A 2.67; F 2.79; T 3.03; L 2.03; E 3.36; S 3; W 1.36; M 2.62
